Conditions: Aspergillus oryzae (strain ATCC 42149 / RIB 40), pH 3, 25 °C, Absorbance, glycine-HCl 0.05 M, reversible: yes, whole UniProt chain shown

B1: Guanyl-specific ribonuclease T1 wild type, P00651 (protein)
chain: MMYSKLLTLTTLLLPTALALPSLVERACDYTCGSNCYSSSDVSTAQAAGYQLHEDGETVGSNSYPHKYNNYEGFDFSVSSPYYEWPILSSGDVYSGGSPGADRVVFNENNQLAGVITHTGASGNNFVECT
denaturant m value (GdnHCl, KCl 0.1-1.0 M): 2.83 kcal/mol/M | denaturant midpoint (higher = more stable) (GdnHCl, KCl 0.1-1.0 M): 1.78 M | unfolding free energy (GdnHCl, KCl 0.1-1.0 M): 5.03 kcal/mol | denaturant m value (Urea, KCl 0.10 M): 1.98 kcal/mol/M | denaturant midpoint (higher = more stable) (Urea, KCl 0.10 M): 2.05 M | unfolding free energy (Urea, KCl 0.10 M): 4.07 kcal/mol | denaturant m value (Urea, KCl 0.50 M): 1.71 kcal/mol/M | denaturant midpoint (higher = more stable) (Urea, KCl 0.50 M): 2.4 M | unfolding free energy (Urea, KCl 0.50 M): 4.1 kcal/mol | denaturant m value (Urea, KCl 1.00 M): 1.59 kcal/mol/M | denaturant midpoint (higher = more stable) (Urea, KCl 1.00 M): 2.82 M | unfolding free energy (Urea, KCl 1.00 M): 4.49 kcal/mol | denaturant m value (Urea, KCl 1.25 M): 1.65 kcal/mol/M | denaturant midpoint (higher = more stable) (Urea, KCl 1.25 M): 3.02 M | unfolding free energy (Urea, KCl 1.25 M): 4.99 kcal/mol | denaturant m value (Urea, KCl 1.50 M): 1.54 kcal/mol/M | denaturant midpoint (higher = more stable) (Urea, KCl 1.50 M): 3.41 M | unfolding free energy (Urea, KCl 1.50 M): 5.26 kcal/mol
